Assay results published in article PMC10233464.

Target: Type V collagen from human placenta (human) (UniProt P20908)
Experiment: ELISA; type V collagen coated on 96-well plates (10 ug/ml in carbonate coating buffer, overnight 4 °C), blocked with 0.5 % BSA in TBS; about 1.0x10^8 whole bacteria per well, 1 h at 37 °C; adhered bacteria detected with anti-serotype a or anti-serotype b whole-cell polyclonal antibody and HRP secondary; activity normalised to a reference strain set at 100 %

UniProt P20908, sequence (P20908 38-1605, chain 1 of 2): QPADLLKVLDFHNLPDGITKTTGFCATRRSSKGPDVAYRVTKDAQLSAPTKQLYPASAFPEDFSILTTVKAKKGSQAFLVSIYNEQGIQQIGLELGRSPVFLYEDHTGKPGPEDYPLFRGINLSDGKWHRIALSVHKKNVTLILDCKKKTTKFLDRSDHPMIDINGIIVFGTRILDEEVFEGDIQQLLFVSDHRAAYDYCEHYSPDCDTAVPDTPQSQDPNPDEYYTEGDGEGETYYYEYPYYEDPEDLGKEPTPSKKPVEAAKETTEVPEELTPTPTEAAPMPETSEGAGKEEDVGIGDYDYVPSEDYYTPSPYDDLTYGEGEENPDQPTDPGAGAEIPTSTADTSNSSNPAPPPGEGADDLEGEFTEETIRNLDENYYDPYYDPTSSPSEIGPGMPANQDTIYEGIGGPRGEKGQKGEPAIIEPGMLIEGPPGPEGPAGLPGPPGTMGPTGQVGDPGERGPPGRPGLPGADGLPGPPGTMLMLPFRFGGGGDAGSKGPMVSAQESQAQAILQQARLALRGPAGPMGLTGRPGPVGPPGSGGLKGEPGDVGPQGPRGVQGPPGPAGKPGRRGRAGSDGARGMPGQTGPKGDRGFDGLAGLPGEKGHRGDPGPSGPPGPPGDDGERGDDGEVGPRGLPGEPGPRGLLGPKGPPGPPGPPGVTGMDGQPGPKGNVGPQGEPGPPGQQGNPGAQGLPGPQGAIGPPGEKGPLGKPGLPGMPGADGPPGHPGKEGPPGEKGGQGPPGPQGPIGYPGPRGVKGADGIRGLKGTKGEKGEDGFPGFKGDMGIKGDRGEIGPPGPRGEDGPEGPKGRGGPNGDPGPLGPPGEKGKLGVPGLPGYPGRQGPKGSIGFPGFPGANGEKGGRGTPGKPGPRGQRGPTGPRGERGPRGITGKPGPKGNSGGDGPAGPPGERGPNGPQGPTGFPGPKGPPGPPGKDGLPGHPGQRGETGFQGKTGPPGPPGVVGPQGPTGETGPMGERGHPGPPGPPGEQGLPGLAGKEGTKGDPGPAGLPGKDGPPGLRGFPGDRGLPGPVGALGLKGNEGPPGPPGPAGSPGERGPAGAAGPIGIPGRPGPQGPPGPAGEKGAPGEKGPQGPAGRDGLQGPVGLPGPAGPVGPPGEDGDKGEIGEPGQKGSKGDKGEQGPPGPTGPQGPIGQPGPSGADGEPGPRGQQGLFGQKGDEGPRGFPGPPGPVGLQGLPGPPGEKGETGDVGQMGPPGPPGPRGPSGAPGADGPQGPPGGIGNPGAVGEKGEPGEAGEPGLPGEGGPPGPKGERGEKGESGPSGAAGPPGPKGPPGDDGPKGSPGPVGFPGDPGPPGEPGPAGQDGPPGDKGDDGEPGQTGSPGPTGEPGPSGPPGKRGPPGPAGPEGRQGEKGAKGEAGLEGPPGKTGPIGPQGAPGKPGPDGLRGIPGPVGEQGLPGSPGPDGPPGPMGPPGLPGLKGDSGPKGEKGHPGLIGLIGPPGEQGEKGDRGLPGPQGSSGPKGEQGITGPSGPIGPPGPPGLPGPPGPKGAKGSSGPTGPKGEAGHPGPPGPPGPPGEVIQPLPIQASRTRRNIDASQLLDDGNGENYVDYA
UniProt P20908, sequence (P05997 27-1229, chain 2 of 2, further chain): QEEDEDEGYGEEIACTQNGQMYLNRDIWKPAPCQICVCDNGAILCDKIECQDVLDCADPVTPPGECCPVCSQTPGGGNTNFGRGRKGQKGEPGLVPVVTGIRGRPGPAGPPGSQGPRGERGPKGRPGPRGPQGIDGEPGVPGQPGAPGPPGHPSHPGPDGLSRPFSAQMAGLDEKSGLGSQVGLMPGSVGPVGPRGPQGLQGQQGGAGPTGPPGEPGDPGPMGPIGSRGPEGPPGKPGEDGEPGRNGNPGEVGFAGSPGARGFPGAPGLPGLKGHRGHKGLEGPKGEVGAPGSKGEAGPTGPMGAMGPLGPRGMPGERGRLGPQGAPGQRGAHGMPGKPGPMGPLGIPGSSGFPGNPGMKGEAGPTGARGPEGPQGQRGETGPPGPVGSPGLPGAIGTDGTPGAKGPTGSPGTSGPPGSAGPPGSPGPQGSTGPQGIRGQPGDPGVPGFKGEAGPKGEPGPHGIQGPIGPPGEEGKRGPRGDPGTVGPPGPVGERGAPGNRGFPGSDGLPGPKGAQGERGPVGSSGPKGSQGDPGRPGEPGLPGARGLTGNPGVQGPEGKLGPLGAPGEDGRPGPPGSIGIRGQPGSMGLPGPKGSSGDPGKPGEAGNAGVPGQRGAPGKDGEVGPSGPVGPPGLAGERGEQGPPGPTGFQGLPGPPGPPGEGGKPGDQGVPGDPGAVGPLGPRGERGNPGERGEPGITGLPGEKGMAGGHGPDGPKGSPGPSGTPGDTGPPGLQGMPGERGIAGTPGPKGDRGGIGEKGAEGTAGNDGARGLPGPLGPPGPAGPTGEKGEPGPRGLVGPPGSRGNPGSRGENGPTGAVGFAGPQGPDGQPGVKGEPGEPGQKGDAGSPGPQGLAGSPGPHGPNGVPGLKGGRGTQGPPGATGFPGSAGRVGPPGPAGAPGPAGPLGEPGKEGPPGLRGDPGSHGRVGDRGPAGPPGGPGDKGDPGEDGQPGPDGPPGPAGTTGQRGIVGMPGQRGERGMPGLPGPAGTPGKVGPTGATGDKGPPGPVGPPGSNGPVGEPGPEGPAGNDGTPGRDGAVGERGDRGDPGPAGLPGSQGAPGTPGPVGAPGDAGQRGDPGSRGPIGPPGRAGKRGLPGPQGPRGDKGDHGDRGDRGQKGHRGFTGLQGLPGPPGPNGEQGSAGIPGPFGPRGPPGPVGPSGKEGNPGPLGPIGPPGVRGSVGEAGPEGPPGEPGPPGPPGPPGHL

| Substance | fold increase in collagen binding over the emaA mutant strain ATCC 29523 | fold increase in collagen binding over the rmlC mutant strain | fold of the collagen binding of the serotype b wild-type strain |
| --- | --- | --- | --- |
| a-EmaA (extracellular matrix protein adhesin A, 173 kDa isoform of serotype a) expressed from pKM753 in strain ATCC 29523 (natural protein) | > 2 fold | – | – |
| a-EmaA expressed from a plasmid in the serotype b O-PS-deficient rmlC mutant strain (natural protein) | – | 4.6 fold | > 2 fold |
